Source: patent US20120164137A1 (MORPHOTEK, published 2012)

B1: MORAb-003 anti-FRA antibody, lot NB859-25 (harvested 14 days after initiation of culture) (antibody, human IgG1, kappa, V domains shown)
VH: EVQLVESGGGVVQPGRSLRLSCSASGFTFSGYGLSWVRQAPGKGLEWVAMISSGGSYTYYADSVKGRFAISRDNAKNTLFLQMDSLRPEDTGVYFCARHGDDPAWFAYWGQGTPVTVSS
VL: DIQLTQSPSSLSASVGDRVTITCSVSSSISSNNLHWYQQKPGKAPKPWIYGTSNLASGVPSRFSGSGSGTDYTFTISSLQPEDIATYYCQQWSSYPYMYTFGQGTKVEIKR
modifications: N-linked neutral glycans at Asn299 in SEQ ID NO: 5
notes: also called Day 14 harvest; positive control (round 3)
B2: MORAb-003 anti-FRA antibody, lot NB859-26 (harvested 17 days after initiation of culture) (antibody, human IgG1, kappa, V domains shown)
VH: EVQLVESGGGVVQPGRSLRLSCSASGFTFSGYGLSWVRQAPGKGLEWVAMISSGGSYTYYADSVKGRFAISRDNAKNTLFLQMDSLRPEDTGVYFCARHGDDPAWFAYWGQGTPVTVSS
VL: DIQLTQSPSSLSASVGDRVTITCSVSSSISSNNLHWYQQKPGKAPKPWIYGTSNLASGVPSRFSGSGSGTDYTFTISSLQPEDIATYYCQQWSSYPYMYTFGQGTKVEIKR
modifications: N-linked neutral glycans at Asn299 in SEQ ID NO: 5
notes: also called Day 17 harvest
B3: MORAb-003 anti-FRA antibody, lot NB859-27 (harvested 20 days after initiation of culture) (antibody, human IgG1, kappa, V domains shown)
VH: EVQLVESGGGVVQPGRSLRLSCSASGFTFSGYGLSWVRQAPGKGLEWVAMISSGGSYTYYADSVKGRFAISRDNAKNTLFLQMDSLRPEDTGVYFCARHGDDPAWFAYWGQGTPVTVSS
VL: DIQLTQSPSSLSASVGDRVTITCSVSSSISSNNLHWYQQKPGKAPKPWIYGTSNLASGVPSRFSGSGSGTDYTFTISSLQPEDIATYYCQQWSSYPYMYTFGQGTKVEIKR
modifications: N-linked neutral glycans at Asn299 in SEQ ID NO: 5
notes: also called Day 20 harvest

What was measured:
[1] = molecular target: T1, Recombinant human folate receptor alpha (FRA) (human, UniProt P15328 25-234); assay: SPR, FRA on CM5 chip, parallel line analysis; reference standard = 100%
T1 construct: Immobilised on a CM5 chip by amine coupling; also called FR-alpha
Experimental: The surface was regenerated between cycles by flushing with 10 mM glycine pH 2.0.

[2] = molecular target: T2, Human FRA on IGROV-1 human ovarian adenocarcinoma cells (human, UniProt P15328 25-234); assay: cell-based or functional assay
[3] = molecular target: T2, Human FRA on IGROV-1 human ovarian …; assay: cell-based or functional assay; remark: listed apart in the source
[4] = molecular target: T2, Human FRA on IGROV-1 human ovarian …; assay: cell-based or functional assay; remark: listed apart in the source

T2 sequence (P15328 25-234 limits assumed): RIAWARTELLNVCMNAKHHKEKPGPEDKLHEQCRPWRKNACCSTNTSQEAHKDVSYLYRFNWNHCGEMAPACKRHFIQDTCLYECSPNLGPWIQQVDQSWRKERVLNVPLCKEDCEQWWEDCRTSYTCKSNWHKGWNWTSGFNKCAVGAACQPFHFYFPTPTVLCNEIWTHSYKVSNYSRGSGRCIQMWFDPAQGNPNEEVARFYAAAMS
T1 sequence (P15328 25-234 limits assumed): as above

Binder | Measured Potency (%) [1] [%] | INTL % (0 Min) [2] [%] | INTL % (15 min) [2] [%] | INTL % (30 min) [2] [%] | INTL % (60 min) [2] [%] | INTL % (150 min) [2] [%] | IC50 (Hum-ZAP secondary immunotoxin killing of IGROV-1 cells) [3] [ng·mL] | Half-Maximal Internalization Constant [4] [min] | Internalization IC50 [4] [ng/mL]
B1 | 51.9 | 0 | 1 | 20 | 44 | 61 | 32 | 42 | 32
B2 | 27.5 | 0 |  | 23 | 43 | 56 | 36 | 36.6 | 36
B3 | 53.3 | 0 | 1 | 19 | 40 | 51 | 23 | 37.3 | 23
